According to article PMC11558822, “Myc 9aaTAD activation domain binds to mediator of transcription with superior high affinity” (Molecular Medicine, 2024):

B1: c-Myc region 1-103: LexA hybrid construct of c-Myc N-terminal region 1–103 without 9aaTAD (protein, UniProt P01106 1-103, looked up, fragment)
chain: MDFFRVVENQQPPATMPLNVSFTNRNYDLDYDSVQPYFYCDEEENFYQQQQQSELQPPAPSEDIWKKFELLPTPPLSPSRRSGLCSPSYVAVTPFSLRGDNDG
modifications: LexA fusion
notes: LexA hybrid construct of c-Myc N-terminal region 1–103 without 9aaTAD
B2: c-Myc region 1-108: LexA hybrid construct of c-Myc N-terminal region 1–108 with 9aaTAD (protein, UniProt P01106 1-108, looked up, fragment)
chain: MDFFRVVENQQPPATMPLNVSFTNRNYDLDYDSVQPYFYCDEEENFYQQQQQSELQPPAPSEDIWKKFELLPTPPLSPSRRSGLCSPSYVAVTPFSLRGDNDGGGGSF
modifications: LexA fusion
notes: LexA hybrid construct of c-Myc N-terminal region 1–108 with 9aaTAD

System: lacZ reporter driven by the lexA operator
Assay: One hybrid transactivation (β-galactosidase reporter) assay with LexA hybrids in yeast strain L40
Type: cell-based, Saccharomyces cerevisiae
Conditions: for ß-Gal: raw β-galactosidase activity; for Reporter activation (average value in %): β-galactosidase activity of LexA hybrid, % of positive control p53 construct 6p53 set to 100%, mean ± SD, n = 3; for normalized value in %: β-galactosidase, % of 6p53 mean
[1] = replicate 1 (first sample of the construct)
[2] = replicate 2 (second sample of the construct)
[3] = replicate 3 (third sample of the construct)

| Molecule | ß-Gal [1] | ß-Gal [2] | ß-Gal [3] | Reporter activation (average value in %) [%] | normalized value in % [1] [%] | normalized value in % [2] [%] | normalized value in % [3] [%] | activation function (times) (one hybrid assay, presence versus absence of 9aaTAD (region 100–108) in the construct) |
| --- | --- | --- | --- | --- | --- | --- | --- | --- |
| B1 | 25 | 24 | 27 | 9 | 9 | 9 | 10 | – |
| B2 | 136 | 123 | 139 | 49 | 50 | 45 | 51 | 5 |
